Results published in IntAct's records for PubMed 30190310.

B1: Kelch-like protein 12 (Homo sapiens), Q53G59 (parent)
chain: MGGIMAPKDIMTNTHAKSILNSMNSLRKSNTLCDVTLRVEQKDFPAHRIVLAACSDYFCAMFTSELSEKGKPYVDIQGLTASTMEILLDFVYTETVHVTVENVQELLPAACLLQLKGVKQACCEFLESQLDPSNCLGIRDFAETHNCVDLMQAAEVFSQKHFPEVVQHEEFILLSQGEVEKLIKCDEIQVDSEEPVFEAVINWVKHAKKEREESLPNLLQYVRMPLLTPRYITDVIDAEPFIRCSLQCRDLVDEAKKFHLRPELRSQMQGPRTRARLGANEVLLVVGGFGSQQSPIDVVEKYDPKTQEWSFLPSITRKRRYVASVSLHDRIYVIGGYDGRSRLSSVECLDYTADEDGVWYSVAPMNVRRGLAGATTLGDMIYVSGGFDGSRRHTSMERYDPNIDQWSMLGDMQTAREGAGLVVASGVIYCLGGYDGLNILNSVEKYDPHTGHWTNVTPMATKRSGAGVALLNDHIYVVGGFDGTAHLSSVEAYNIRTDSWTTVTSMTTPRCYVGATVLRGRLYAIAGYDGNSLLSSIECYDPIIDSWEVVTSMGTQRCDAGVCVLREK

Variants of: B1
Conditions: with cul3_human CUL3, Q13618

Row | Variant | effect of a mutation on the interaction
1 | MGGIMAPKDIMTNTHAKSILNSMNSLRKSNTLCDVTLRVEQKDFPAHRIALAACSDYFCAMFTSELSEKGKPYVDIQGLTASTMEILLDFVYTETVHVTVENVQELLPAACLLQLKGVKQACCEFLESQLDPSNCLGIRDFAETHNCVDLMQAAEVFSQKHFPEVVQHEEFILLSQGEVEKLIKCDEIQVDSEEPVFEAVINWVKHAKKEREESLPNLLQYVRMPLLTPRYITDVIDAEPFIRCSLQCRDLVDEAKKFHLRPELRSQMQGPRTRARLGANEVLLVVGGFGSQQSPIDVVEKYDPKTQEWSFLPSITRKRRYVASVSLHDRIYVIGGYDGRSRLSSVECLDYTADEDGVWYSVAPMNVRRGLAGATTLGDMIYVSGGFDGSRRHTSMERYDPNIDQWSMLGDMQTAREGAGLVVASGVIYCLGGYDGLNILNSVEKYDPHTGHWTNVTPMATKRSGAGVALLNDHIYVVGGFDGTAHLSSVEAYNIRTDSWTTVTSMTTPRCYVGATVLRGRLYAIAGYDGNSLLSSIECYDPIIDSWEVVTSMGTQRCDAGVCVLREK [V50A] | with no effect

Variants of: B1
Conditions: with fxl17_human FBXL17, Q9UF56
Sequence of fxl17_human FBXL17, Q9UF56 (Q9UF56 whole entry): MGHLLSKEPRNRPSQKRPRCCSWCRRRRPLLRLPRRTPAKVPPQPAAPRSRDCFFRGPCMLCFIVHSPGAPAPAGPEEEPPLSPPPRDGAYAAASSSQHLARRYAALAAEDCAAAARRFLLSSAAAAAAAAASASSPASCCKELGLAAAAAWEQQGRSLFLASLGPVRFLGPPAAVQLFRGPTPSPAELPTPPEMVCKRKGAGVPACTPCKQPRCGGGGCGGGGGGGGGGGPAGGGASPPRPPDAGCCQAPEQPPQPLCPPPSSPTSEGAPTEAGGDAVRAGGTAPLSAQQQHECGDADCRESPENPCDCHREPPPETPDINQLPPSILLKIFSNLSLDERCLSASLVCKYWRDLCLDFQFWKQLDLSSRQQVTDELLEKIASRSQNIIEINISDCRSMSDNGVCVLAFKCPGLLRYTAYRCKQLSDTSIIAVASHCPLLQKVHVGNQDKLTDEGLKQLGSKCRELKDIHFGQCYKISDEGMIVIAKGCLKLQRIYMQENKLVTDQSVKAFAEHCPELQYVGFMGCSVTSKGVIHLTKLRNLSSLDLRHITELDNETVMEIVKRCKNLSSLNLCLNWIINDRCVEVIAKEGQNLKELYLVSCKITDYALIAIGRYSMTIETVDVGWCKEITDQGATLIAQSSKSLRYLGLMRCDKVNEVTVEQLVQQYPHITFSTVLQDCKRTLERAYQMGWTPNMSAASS

Row | Variant | effect of a mutation on the interaction
2 | MGGIMAPKDIMTNTHAKSILNSMNSLRKSNTLCDVTLRVEQKDFPAHRIALAACSDYFCAMFTSELSEKGKPYVDIQGLTASTMEILLDFVYTETVHVTVENVQELLPAACLLQLKGVKQACCEFLESQLDPSNCLGIRDFAETHNCVDLMQAAEVFSQKHFPEVVQHEEFILLSQGEVEKLIKCDEIQVDSEEPVFEAVINWVKHAKKEREESLPNLLQYVRMPLLTPRYITDVIDAEPFIRCSLQCRDLVDEAKKFHLRPELRSQMQGPRTRARLGANEVLLVVGGFGSQQSPIDVVEKYDPKTQEWSFLPSITRKRRYVASVSLHDRIYVIGGYDGRSRLSSVECLDYTADEDGVWYSVAPMNVRRGLAGATTLGDMIYVSGGFDGSRRHTSMERYDPNIDQWSMLGDMQTAREGAGLVVASGVIYCLGGYDGLNILNSVEKYDPHTGHWTNVTPMATKRSGAGVALLNDHIYVVGGFDGTAHLSSVEAYNIRTDSWTTVTSMTTPRCYVGATVLRGRLYAIAGYDGNSLLSSIECYDPIIDSWEVVTSMGTQRCDAGVCVLREK [V50A] | causing an interaction
3 | MGGIMAPKDIMTNTHAKSILNSMKSLRKSNTLCDVTLRVEQKDFPAHRIVLAACSDYFCAMFTSELSEKGKPYVDIQGLTASTMEILLDFVYTETVHVTVENVQELLPAACLLQLKGVKQACCEFLESQLDPSNCLGIRDFAETHNCVDLMQAAEVFSQKHFPEVVQHEEFILLSQGEVEKLIKCDEIQVDSEEPVFEAVINWVKHAKKEREESLPNLLQYVRMPLLTPRYITDVIDAEPFIRCSLQCRDLVDEAKKFHLRPELRSQMQGPRTRARLGANEVLLVVGGFGSQQSPIDVVEKYDPKTQEWSFLPSITRKRRYVASVSLHDRIYVIGGYDGRSRLSSVECLDYTADEDGVWYSVAPMNVRRGLAGATTLGDMIYVSGGFDGSRRHTSMERYDPNIDQWSMLGDMQTAREGAGLVVASGVIYCLGGYDGLNILNSVEKYDPHTGHWTNVTPMATKRSGAGVALLNDHIYVVGGFDGTAHLSSVEAYNIRTDSWTTVTSMTTPRCYVGATVLRGRLYAIAGYDGNSLLSSIECYDPIIDSWEVVTSMGTQRCDAGVCVLREK [N24K] | causing an interaction
4 | MGGIMAPKDIMTNTHAKSILNSMKSLRKSNTLCDVTLRVEQKDFPAHRIVLAACSDYFCKMFTSELSEKGKPYVDIQGLTASTMEILLDFVYTETVHVTVENVQELLPAACLLQLKGVKQACCEFLESQLDPSNCLGIRDFAETHNCVDLMQAAEVFSQKHFPEVVQHEEFILLSQGEVEKLIKCDEIQVDSEEPVFEAVINWVKHAKKEREESLPNLLQYVRMPLLTPRYITDVIDAEPFIRCSLQCRDLVDEAKKFHLRPELRSQMQGPRTRARLGANEVLLVVGGFGSQQSPIDVVEKYDPKTQEWSFLPSITRKRRYVASVSLHDRIYVIGGYDGRSRLSSVECLDYTADEDGVWYSVAPMNVRRGLAGATTLGDMIYVSGGFDGSRRHTSMERYDPNIDQWSMLGDMQTAREGAGLVVASGVIYCLGGYDGLNILNSVEKYDPHTGHWTNVTPMATKRSGAGVALLNDHIYVVGGFDGTAHLSSVEAYNIRTDSWTTVTSMTTPRCYVGATVLRGRLYAIAGYDGNSLLSSIECYDPIIDSWEVVTSMGTQRCDAGVCVLREK [N24K;A60K] | with no effect
5 | MGGIMAPKDIMTNTHAKSILNSMNSLAKSNTLCDVTLRVEQKDFPAHRIVLAACSDYFCAMFTSELSEKGKPYVDIQGLTASTMEILLDFVYTETVHVTVENVQELLPAACLLQLKGVKQACCEFLESQLDPSNCLGIRDFAETHNCVDLMQAAEVFSQKHFPEVVQHEEFILLSQGEVEKLIKCDEIQVDSEEPVFEAVINWVKHAKKEREESLPNLLQYVRMPLLTPRYITDVIDAEPFIRCSLQCRDLVDEAKKFHLRPELRSQMQGPRTRARLGANEVLLVVGGFGSQQSPIDVVEKYDPKTQEWSFLPSITRKRRYVASVSLHDRIYVIGGYDGRSRLSSVECLDYTADEDGVWYSVAPMNVRRGLAGATTLGDMIYVSGGFDGSRRHTSMERYDPNIDQWSMLGDMQTAREGAGLVVASGVIYCLGGYDGLNILNSVEKYDPHTGHWTNVTPMATKRSGAGVALLNDHIYVVGGFDGTAHLSSVEAYNIRTDSWTTVTSMTTPRCYVGATVLRGRLYAIAGYDGNSLLSSIECYDPIIDSWEVVTSMGTQRCDAGVCVLREK [R27A] | causing an interaction
6 | MGGIMAPKDIMTNTHAKSILNSMNSLAKSNTLCDVTLRVEQKDFPAHRIVLAACSDYFCKMFTSELSEKGKPYVDIQGLTASTMEILLDFVYTETVHVTVENVQELLPAACLLQLKGVKQACCEFLESQLDPSNCLGIRDFAETHNCVDLMQAAEVFSQKHFPEVVQHEEFILLSQGEVEKLIKCDEIQVDSEEPVFEAVINWVKHAKKEREESLPNLLQYVRMPLLTPRYITDVIDAEPFIRCSLQCRDLVDEAKKFHLRPELRSQMQGPRTRARLGANEVLLVVGGFGSQQSPIDVVEKYDPKTQEWSFLPSITRKRRYVASVSLHDRIYVIGGYDGRSRLSSVECLDYTADEDGVWYSVAPMNVRRGLAGATTLGDMIYVSGGFDGSRRHTSMERYDPNIDQWSMLGDMQTAREGAGLVVASGVIYCLGGYDGLNILNSVEKYDPHTGHWTNVTPMATKRSGAGVALLNDHIYVVGGFDGTAHLSSVEAYNIRTDSWTTVTSMTTPRCYVGATVLRGRLYAIAGYDGNSLLSSIECYDPIIDSWEVVTSMGTQRCDAGVCVLREK [R27A;A60K] | with no effect
